Data on one molecule can be found in publication PMC7108782, “Direct interaction of metastasis-inducing S100P protein with tubulin causes enhanced cell migration without changes in cell adhesion” (Biochemical Journal, 2020).

A word on the Kd: it is the concentration at which binding is half-saturated.

Like-named read-outs stand apart in the source and are kept apart here.

For test [1], the system named is tubulin. The test is described as follows: Co-immunoprecipitation, COS-7 S10 lysates. It is filed as binding, monkey. Conditions: S100P-induced COS-7 S10 lysates, 0.5 mM CaCl2. The protocol: For co-immunoprecipitations, S100P-inducible COS-7 cells were incubated with 1 µg/ml doxycycline for 16 h and lysed in RIPA buffer (Thermo Fisher Scientific, Loughborough, U.K.) with 0.5 mM CaCl2. After sonication and centrifugation as described above, control antibody (rabbit IgG from Sigma), anti-tubulin or anti-S100P were added to three separate tubes containing 0.7 ml each of cell lysate and incubated overnight at 4°C. Then 100 µl Dynabeads® ProteinG (Thermo Fisher Scientific) were added to each tube and the contents incubated for 4 h at 4°C. After extensive washings with washing buffer (10 mM Tris–HCl, pH 7.4, 150 mM NaCl, 1% (v/v) Triton X-100, 0.2 mM sodium orthovanadate), the bound proteins were eluted with 0.1 M glycine pH 2.5 and then subjected to Western blotting using the paired antibodies together with a sample of the input and the last wash.

Test [2] relates to α,β-tubulin. The test is described as follows: SPR binding of S100P to immobilised α,β-tubulin. Set-up: species or system human. Particulars: for Kd: mean ± SE, 3 experiments. An excerpt:
The coding sequences for full length (human) α-tubulin and for N-terminal and C-terminal halves of α or β-tubulin were generated using PCR with specific primers shown in Supplementary Table S1 and sub-cloned into pET16(b) for expressing and purifying His-tagged full-length α-tubulin and His-tagged tubulin fragments in E. coli, as described previously. β-tubulin was purchased from Abcam.
For SPR binding assays, α,β-tubulin proteins described earlier were immobilised on a carboxymethylated dextran surface of a CM5 chip using BS^3 for use in Biocore X100. Recombinant S100P produced as described previously was used as a ligand in different concentrations at 20, 50, 100, 200, 1000, 2000 nM for calculation of the equilibrium dissociation constant (Kd) from the association/dissociation rate constants and from the extent of binding near equilibrium (Supplementary Table S2), as described previously. To detect the effects of tubulin peptides on the interaction of tubulin, different concentrations of tagged and untagged peptides were mixed with 1 µM S100P first and the mixtures were then applied to the tubulin-coated chip. The relative changes in kinetics and binding extents with different peptides were calculated using software provided by the manufacturer.
(In SPR one partner is held on a chip, and binding of the other changes the refractive index at the surface.)

Test [3] deals with COS-7 cells. The test is described as follows: Living colour expression: YFP-S100P with CFP-EB3. It is filed as cell-based, monkey. Particulars: high YFP-S100P, 24 h. The protocol: S100P fused to yellow fluorescent protein (YFP), and EB3 fused to cyan fluorescent protein (CFP) (EB3-CFP) expression plasmids, pYFP-S100P and pCFP-EB3 were constructed, respectively. COS-7 cells were transiently transfected with the two plasmids and images were recorded using a LSM 5 confocal microscope 24 h after transfection. CFP: excitation = 436 nm, emission = 480 nm; YFP: excitation = 500 nm, emission = 520 nm.

For test [4], the system named is Rama 37-T25 cells. The test is described as follows: S100P-enhanced cell migration, Rama 37-T25. The class given is cell-based, rat. Conditions: Rama 37-T25, doxycycline 1 µg/ml, 24 h. From the text:
(§1) Cell migration rate (%) = M/G × 100.

The test system of test [5] is nonmuscle myosin (NM) isoforms. Conditions: ref [10]; cited from earlier work. From the text: Overexpression of S100P promotes breast cancer metastasis in animals and elevated levels in primary breast cancers are associated with poor patient outcomes.
In test [6] the test system is HeLa-A3 cells. Briefly: Cell adhesion assays, HeLa-A3. The class given is cell-based, human. Conditions: HeLa A3, S100P induced vs uninduced, weak trypsin digestion, n = 3. As to the method:
For kinetics of attachment either HeLa-A3 or COS-7 S10 cells were induced with 1 µg/ml doxycycline 48 h prior to experiment and 2 × 10^5 uninduced or induced cells in 1 ml were added to 24 well tissue culture dishes and allowed to adhere at 37°C. At the given time (30 min to 2 h) cells were washed 2× with PBS and detached with 250 µl 0.05% (w/v) trypsin in versene for 5 min at 37°C, neutralised in serum-containing media (SCM), counted and the percent of seeded cells recorded. For strength of adhesion, the same cells were seeded in 24 well tissue culture dishes so as to yield 80% confluence in 24 h. In all cases identical dishes were set up for test and control. After 24 h, wells were washed 2× and detached with 250 µl, 0.0125% (w/v) trypsin in versene for 5 min at 37°C. Wells were then carefully washed 2× to remove weak binders. Trypsin in versene (250 µl of 0.05% (w/v)) was then added to both test dish and control dish for 5 min to remove all cells from the well, neutralised with SCM and counted. The proportion of cells remaining after the weak digestion step was determined from the ratio of results from test and control plates. All assays were performed in triplicate.

Test [7] concerns HeLa cells. Particulars: inducible HeLa (range stated for Rama 37 and HeLa) ref [10],[37]; cited from earlier work. An excerpt: (§2) In our previous study, we reported that S100P enhances cell migration by binding to and affecting distribution of NMIIA filaments in HeLa and Rama 37 cells. We now sought to determine whether S100P overexpression could induce such changes in cells when NMIIA was absent. The monkey kidney COS-7 cells have been reported to lack NMIIA [28] and this was confirmed in comparison with its presence in human HeLa and rat Rama 37 cells (Figure 1A). We then generated three S100P-inducible COS-7 cell lines using doxycycline as the inducing agent, the largest increase being in clone S10 (Figure 1B ...

Test [8] has as its system Rama 37 cells. Particulars: inducible Rama 37 (range stated for Rama 37 and HeLa) ref [10],[37]; cited from earlier work.
Text: as §2

The subject of test [9] is COS-7 S10 cells. Briefly: Boyden chamber cell migration, S100P-inducible COS-7. The class given is cell-based, monkey. Particulars: 24 h.
Text: as §1

B1: S100P: recombinant or doxycycline-induced overexpressed S100P protein (protein)
chain: MTELETAMGMIIDVFSRYSGSEGSTQTLTKGELKVLMEKELPGFLQSGKDKDAVDKLLKDLDANGDAQVDFSEFIVFVAAITSACHKYFEKAGLK
Take B1: the “complex with tubulin in immunoprecipitates” value in [1] is listed as “immunoprecipitates produced with anti-S100P also contained tubulin”. In test [2] (0.15 M NaCl, 2 µM S100P), the “calcium concentration above which complex starts to form” value was “above 30 µM”. Besides, the “calcium concentration saturating the reaction” value in [2] (0.15 M NaCl, 2 µM S100P) is 0.2 mM. For the same molecule, the Kd is 120 ± 12 nM in [2] (Kd from association/dissociation rate constants, 150mM NaCl, 0.5mM CaCl2, single cycle, S100P 20-2000 nM, CM5 chip, read-out: Kinetic dissociation constant Kd); 210 ± 90 nM in test [2] (Kd from rate constants, 150mM NaCl, 0.5mM CaCl2, multiple cycles, read-out: Kinetic dissociation constant Kd); 890 ± 90 nM in test [2] (Kd from rate constants, 300M NaCl (so in the source), 0.5mM CaCl2, multiple cycles, read-out: Kinetic dissociation constant Kd); 8300 ± 700 nM in test [2] (Kd from rate constants, 500M NaCl (so in the source), 0.5mM CaCl2, multiple cycles, read-out: Kinetic dissociation constant Kd); 1100 ± 160 nM in test [2] (at or near equilibrium, 300M NaCl (so in the source), 0.5mM CaCl2, multiple cycles, read-out: Equilibrium dissociation constant Kd). Also, the “Kinetic dissociation constant Kd” value in test [2] (Kd from rate constants, 150M NaCl (so in the source), EDTA 5mM, multiple cycles, 1L = incalculably large) was 1 L. Moreover, in [2] (SPR, Figure 2F-H), the “calcium concentration at saturation of binding” value is given as 200 µM. Moreover, in test [2] (at or near equilibrium, 150M NaCl (so in the source), EDTA 5mM, multiple cycles, 1L = incalculably large), the “Equilibrium dissociation constant Kd” value was 1 L. In addition, the “distribution of peripheral MTs” value in [3] is listed as “more dispersed distribution of cyan-labelled peripheral MTs”. In addition, the S100P-enhanced cell migration is on record as 3–4 folds in [4] and 2–3 folds in test [9] (COS-7 S10, doxycycline 1 µg/ml). The “order of interaction with NM isoforms” value in test [5] was “IIA > IIC > IIB”. Further, in [6], the “fold decrease in strength of adhesion” value is 1.58 fold. Besides, the “fold increase in migration on S100P overexpression” value in test [7] and in [8] was 3.2 to 4.8 fold throughout. The “fold increase in relative cell migration rate on S100P induction” value in [9] (three inducible COS-7 lines S7, S10, S23, 1 µg/ml doxycycline) lay within 2.5 to 2.9 fold.
